According to article PMC4869151 (ACS Infectious Diseases, 2016):

B1: recombinant single-chain variable fragment of the PL-2 antibody (scFv, V domains shown)
VH: DVQLKQSGPGLVQPSQSLSITCTVSGFSLIDYGVHWVRQSPGKGLEWLGVIWTGGSTDYNAAFISRLTISKDNSKSQVFFKMNSLQANDTGIYYCGRPYYGNVMDYWGQGTSVTVSS
VL: DIQMTQTTSSLSASLGDRVTISCRASQDISNYLNWYQQKPDGTVKLLIYYTSRLHSGVPSRFSGSGSGTDYSLTISNLEQEDIATYFCQQGNTFPPTFGGGTKLEIK
B2: monoclonal antibody PL-2 (antibody, V domains shown)
VH: B1 VH
VL: B1 VL

What was measured:
[1] = target: T1, recombinant HAstV-2 capsid protein (Human astrovirus 2 (HAstV-2), entry …, UniProt Q82446, strain); experiment: pull-down
[2] = target: T1, recombinant HAstV-2 capsid protein; experiment: ELISA

Row | Binder | binding result [1] | binding result [2]
1 | B1 | binds | 
2 | B2 |  | binds
